# pKd: −log10 of the molar value.
# Experiments:
# [1] = target: MART-1/Melan-A (anchor-modified decamer, modified at position 2) peptide on HLA-A*02:01 (human); assay: SPR
# [2] = target: MART-1/Melan-A peptide on HLA-A*02:01 (human); assay: SPR
pKd [1],pKd [2],Substance
4.54,–,DMF4
5.22,4.40,DMF5

# Source: PMC3166883
